According to article PMC3713452 (2013):

Molecular target: T1, GST-Pdcd4 (GST fusion to full length Drosophila Pdcd4) (Drosophila, UniProt Q9VY91)
T1 chain: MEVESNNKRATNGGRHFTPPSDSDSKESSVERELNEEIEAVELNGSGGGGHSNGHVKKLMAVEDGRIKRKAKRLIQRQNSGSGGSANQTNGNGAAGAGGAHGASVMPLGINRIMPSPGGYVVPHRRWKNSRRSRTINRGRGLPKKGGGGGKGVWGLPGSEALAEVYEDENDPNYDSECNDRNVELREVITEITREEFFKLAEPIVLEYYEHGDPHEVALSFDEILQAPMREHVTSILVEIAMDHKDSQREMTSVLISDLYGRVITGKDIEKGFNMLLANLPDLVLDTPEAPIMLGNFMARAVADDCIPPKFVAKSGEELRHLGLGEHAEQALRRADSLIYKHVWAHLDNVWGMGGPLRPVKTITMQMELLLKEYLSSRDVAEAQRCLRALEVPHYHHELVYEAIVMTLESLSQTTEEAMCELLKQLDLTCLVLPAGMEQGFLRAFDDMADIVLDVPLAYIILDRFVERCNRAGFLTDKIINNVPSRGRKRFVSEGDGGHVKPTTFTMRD
Assay: GST pull-down (affinity chromatography, immunoblot)

B1: recombinant Drosophila eIF4A (6His eIF4A) (protein)
chain: MDDRNEIPQDGPASMEPEGVIESTWHEVYDNFDDMNLREELLRGIYGYGFEKPSAIQQRAIIPCVRGRDVIAQAQSGTGKTATFSIAILQQIDTSIRECQALILAPTRELATQIQRVVMALGEYMKVHSHACIGGTNVREDARILESGCHVVVGTPGRVYDMINRKVLRTQYIKLFVLDEADEMLSRGFKDQIQDVFKMLPPDVQVILLSATMPPDVLEVSRCFMRDPVSILVKKEELTLEGIKQFYVNVKQENWKLGTLCDLYDTLSITQSVIFCNTRRKVDQLTQEMSIHNFTVSAMHGDMEQRDREVIMKQFRSGSSRVLITTDLLARGIDVQQVSLVINYDLPSNRENYIHRIGRGGRFGRKGVAINFITDDDRRILKDIEQFYHTTIEEMPANIADLI
B1: binds.
